Experimental data reported in patent publication US20240026017A1 (Kyowa Kirin, published 2024).
Values belong to the binder of their own block, whether it stands above or below them.

Tests used:
[1] = biological target: T1, human CC chemokine receptor 1 (human CCR1) (human, UniProt P32246 1-355); test: flow cytometry on CHO-S-hCCR1 cells, antibody 3.2 to 10,000 ng/mL, Geomean compared
T1 construct: endogenous on THP-1 cells in the migration assays; also called hCCR1; CHO-S-hCCR1 (expressing cells)
T1 sequence: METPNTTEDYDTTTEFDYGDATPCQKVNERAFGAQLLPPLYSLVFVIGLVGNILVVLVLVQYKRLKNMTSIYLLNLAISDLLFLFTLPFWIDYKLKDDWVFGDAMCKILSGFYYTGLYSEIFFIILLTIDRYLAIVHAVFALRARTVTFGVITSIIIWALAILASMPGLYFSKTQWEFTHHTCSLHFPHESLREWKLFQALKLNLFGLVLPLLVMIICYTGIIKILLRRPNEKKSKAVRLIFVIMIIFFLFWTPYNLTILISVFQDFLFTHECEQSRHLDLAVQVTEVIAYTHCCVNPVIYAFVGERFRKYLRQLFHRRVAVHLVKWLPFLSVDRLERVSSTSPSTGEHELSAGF
Procedure: The antigen affinity of the chKM5908′ antibody, which is a VL-substituted chimeric antibody, was measured by flow cytometry using the CHO-S-hCCR1 cells produced in Example 2. The cells were collected by centrifugation, the supernatant was removed, and the cells were suspended in PBS (Staining Medium, hereinafter, abbreviated as SM) containing 2% fetal bovine serum (FBS), 0.05% NaN₃, and 1 mM EDTA. Next, the cells were seeded in a 96-well plate so that the number of cells is 1×10⁵ per well, and the chKM5908′ antibody was added at each final concentration of 10,000, 2,000, 400, 80, 16, and 3.2 ng/mL, and the reaction was performed at 4° C. for 60 minutes. After washing the cells with SM, Goat F (ab′)₂ Anti-Human IgG PE (γ chain specific) (Southern Biotech) diluted 500-fold with SM was added and reacted at 4° C. for 60 minutes. After washing the cells with SM, the cells were resuspended in 50 μL of SM, and the fluorescence intensity was measured by the flow cytometry (FACS Canto II, BD Biosciences).
The data was analyzed by FlowJo 7.65 (Tommy Digital Biology Co., Ltd.), and the binding strength was compared from the Geomean value at each concentration.

human CCR3 = biological target: T2, human CCR3 (human, UniProt P51677 1-355); test: flow cytometry on CHO-S-hCCR3 cells, hybridoma culture supernatant diluted 10-fold
T2 construct: whole, on cells; also called hCCR3; CHO-S-hCCR3 (expressing cells)
T2 sequence (looked up): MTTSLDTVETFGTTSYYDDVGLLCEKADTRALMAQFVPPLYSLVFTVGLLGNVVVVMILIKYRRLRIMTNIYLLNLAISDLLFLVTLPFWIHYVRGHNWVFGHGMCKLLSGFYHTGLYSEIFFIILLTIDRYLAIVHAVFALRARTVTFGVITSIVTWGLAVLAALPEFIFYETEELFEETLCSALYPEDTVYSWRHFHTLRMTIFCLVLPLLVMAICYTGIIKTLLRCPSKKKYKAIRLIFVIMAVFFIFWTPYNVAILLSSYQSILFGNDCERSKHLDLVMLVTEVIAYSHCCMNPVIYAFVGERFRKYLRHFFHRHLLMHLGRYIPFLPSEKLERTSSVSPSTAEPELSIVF
Description: (§1) As test antibodies, each hybridoma culture supernatant diluted 10-fold, an existing mouse anti-human CCR1 monoclonal antibody 53504 antibody (R & D Technologies), and a mouse anti-human CCR3 monoclonal antibody 444-11 antibody (MBL) were used.
(§2) Regarding the measurement results, the fluorescence intensity when a certain cell was stained with a certain test antibody (each hybridoma culture supernatant, 53504 antibody or 444-11 antibody) and a secondary antibody was divided by the fluorescence intensity when the cell was stained only with the secondary antibody. […] In Table 2, the results are indicated as A and B, respectively.

[2] = biological target: T3, NC3-mCCR1 (chimeric receptor in which positions 1 to 31 of mouse CCR1 were substituted with the corresponding … (human; mouse, UniProt P51677 1-31); test: flow cytometry on CHO-S-NC3-mCCR1 cells, hybridoma culture supernatant diluted 10-fold
T3 construct: expressed on CHO-S cells; End 355 from the stated total length of CCR1; also called CHO-S-NC3-mCCR1 (expressing cells)
T3 sequence: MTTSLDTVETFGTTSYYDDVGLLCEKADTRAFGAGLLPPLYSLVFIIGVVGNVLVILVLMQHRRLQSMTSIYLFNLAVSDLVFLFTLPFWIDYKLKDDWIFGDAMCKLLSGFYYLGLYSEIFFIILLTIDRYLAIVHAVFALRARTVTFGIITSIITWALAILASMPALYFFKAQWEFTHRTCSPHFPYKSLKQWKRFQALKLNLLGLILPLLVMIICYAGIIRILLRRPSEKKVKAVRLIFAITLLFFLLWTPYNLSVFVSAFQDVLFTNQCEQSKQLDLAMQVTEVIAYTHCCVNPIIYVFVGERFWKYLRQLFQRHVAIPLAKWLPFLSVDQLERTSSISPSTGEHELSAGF
Description: as §1, §2

[3] = biological target: T1, human CC chemokine receptor 1 (human …); test: cell-based or functional assay

- binding result [1]: binds
B1: chKM5908′ antibody (antibody, V domains shown)
VH: QVQLKQSGPGLVQPSQSLSITCTVSGFSLNNYGVHWVRQPPGKGLEWLGVIWSAGTTVYNAAFISRLSISKDDSKSQVFFKMNSLQAGDTAIYYCAKDGSRYYTAMDYWGQGTSVTVSS
VL: DVVMTQTPLSLPVSLGDQASIFCRSSQSLVHRNGITFFHWYLQKPGQSPKLLIYKVSNRFSGVPDRFSGSGSGTDFTLKISRVAPDDLGVYFCSQGTHVPPTFGGGTKLEIK
notes: chimeric; also called VL-substituted chimeric antibody (VH of chKM5908, VL of chKM5914)

- fluorescence intensity ratio (test antibody + secondary / secondary only) (human CCR3): < 10 fold
- fluorescence intensity ratio (test antibody + secondary / secondary only) [2]: < 10 fold
B2: KM5955 antibody (antibody, mouse IgG2a, V domains shown)
VH: EVQLVESGGGLVKPGGSLKLSCAASGFTLRDFGMHWVRQVPEKGLEWVAYISSGRTAISYVDKVKGRFTISRDNAKNTLFLQMTSLRSEDTAMYYCARRPYSKSYAMDYWGQGTSVTVSS
VL: DVVLTQTPLSLPVNIGDQASISCKSIKSLLNSDGFTYLDWYLQKPGQSPQLLIYLVSNRFSGVPDRFSGSGSGTDFTLKIRRVEAEDLGVYYCFQSNYLPLTFGAGTKLELK
notes: mouse IgG2a from hybridoma

- antibody concentration showing THP-1 migration inhibitory activity [3]: ≥ 0.3 µg/mL
B3: hzKM5907 LV2bHV3a antibody (antibody, V domains shown)
VH: EVQLLESGGGLVQPGGSLRLSCAASGFTFSRYGMSWVRQAPGKRLEWVSSISATFTYTYYTDNVKGRFTISRDNSKNTLYLQMNSLRAEDTGVYYCARQDNYAWFDSWGQGTLVTVSS
VL: DIVMTQTPLSLPVTSGEPVSISCRSSQSIVHSNGNTFLEWYLKKPGQSPQLLIYKVSSRFSGVPDRFSGSGSGTDFTLKISRVEAEDVGVYYCFQGSHIPWTFGGGTKVEIK

- antibody concentration showing THP-1 migration inhibitory activity [3]: ≥ 0.3 µg/mL
B4: hzKM5916 LV2HV0 antibody (antibody, V domains shown)
VH: QVQLQESGGGLVKPGGSLKLSCAASGFTFSRNAMSWVRQTPDKRLEWVAYISSGSDYIYYADTVKGRFTISRDNAKNTLYLQMSSLKSEDTAMYYCARFSYGYGKNAPDYWGQGTMVTVSS
VL: DIQMTQSPSSLSASVGDRVTITCKASQDINKYIAWYQHKPGKGPKLLIHYTSSLQPGVPSRFSGSGSGTDFSFTISSLQPEDLATYYCLQYDYTMTFGGGTKVEIK
